Experimental data published in US20260209362A1 (VIB VZW, published 2026).

T1: biotinylated recombinant mouse IL-12Rβ2 (produced in-house) (mouse, UniProt P97378 24-637, randomly biotinylated)
T1 construct: also called mIL-12RB2; mouse IL-12RB2
T1 sequence: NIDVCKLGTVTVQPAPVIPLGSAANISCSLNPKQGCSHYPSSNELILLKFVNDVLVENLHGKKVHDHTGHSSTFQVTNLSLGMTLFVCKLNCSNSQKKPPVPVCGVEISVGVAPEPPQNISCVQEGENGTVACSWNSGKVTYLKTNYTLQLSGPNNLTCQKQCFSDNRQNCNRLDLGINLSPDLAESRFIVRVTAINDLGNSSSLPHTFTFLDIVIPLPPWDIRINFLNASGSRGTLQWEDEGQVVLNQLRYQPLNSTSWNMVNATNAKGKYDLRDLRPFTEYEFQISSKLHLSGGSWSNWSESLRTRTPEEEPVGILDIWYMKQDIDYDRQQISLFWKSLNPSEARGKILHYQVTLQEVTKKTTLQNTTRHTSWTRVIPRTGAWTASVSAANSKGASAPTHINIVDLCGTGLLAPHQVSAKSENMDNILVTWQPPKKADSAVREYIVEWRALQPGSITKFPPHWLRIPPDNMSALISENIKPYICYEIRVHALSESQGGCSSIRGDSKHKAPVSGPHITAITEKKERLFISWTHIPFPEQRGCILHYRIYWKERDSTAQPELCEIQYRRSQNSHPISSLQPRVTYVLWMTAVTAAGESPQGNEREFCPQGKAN

T2: biotinylated recombinant human IL-12Rβ2 (produced in-house) (human, UniProt Q99665 24-622, randomly biotinylated)
T2 construct: also called hIL-12RB2; human IL-12RB2
T2 sequence: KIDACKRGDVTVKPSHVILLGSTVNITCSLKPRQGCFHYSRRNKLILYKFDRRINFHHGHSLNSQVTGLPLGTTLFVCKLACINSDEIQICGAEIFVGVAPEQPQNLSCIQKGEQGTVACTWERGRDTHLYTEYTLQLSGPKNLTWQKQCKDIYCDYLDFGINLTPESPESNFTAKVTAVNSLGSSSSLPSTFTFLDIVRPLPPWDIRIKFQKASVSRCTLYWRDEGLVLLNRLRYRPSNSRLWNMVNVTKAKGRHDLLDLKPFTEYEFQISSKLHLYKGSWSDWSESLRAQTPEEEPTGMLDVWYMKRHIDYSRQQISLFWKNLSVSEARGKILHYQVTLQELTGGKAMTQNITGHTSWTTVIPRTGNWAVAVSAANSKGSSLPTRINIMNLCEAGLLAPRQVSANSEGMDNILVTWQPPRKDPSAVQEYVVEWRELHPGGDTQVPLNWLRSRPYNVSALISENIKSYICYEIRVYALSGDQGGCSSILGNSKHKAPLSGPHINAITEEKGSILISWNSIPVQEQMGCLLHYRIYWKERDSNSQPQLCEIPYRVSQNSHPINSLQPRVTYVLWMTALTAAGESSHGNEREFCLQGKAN

T3: mouse IL-12Rβ2 (mouse, UniProt P97378 24-874)
T3 construct: Expressed on HEK293T cells transiently transfected with a pcDNA3 plasmid (Genscript clone OMu01776); also called mIL-12RB2; NP_032380.1
T3 sequence: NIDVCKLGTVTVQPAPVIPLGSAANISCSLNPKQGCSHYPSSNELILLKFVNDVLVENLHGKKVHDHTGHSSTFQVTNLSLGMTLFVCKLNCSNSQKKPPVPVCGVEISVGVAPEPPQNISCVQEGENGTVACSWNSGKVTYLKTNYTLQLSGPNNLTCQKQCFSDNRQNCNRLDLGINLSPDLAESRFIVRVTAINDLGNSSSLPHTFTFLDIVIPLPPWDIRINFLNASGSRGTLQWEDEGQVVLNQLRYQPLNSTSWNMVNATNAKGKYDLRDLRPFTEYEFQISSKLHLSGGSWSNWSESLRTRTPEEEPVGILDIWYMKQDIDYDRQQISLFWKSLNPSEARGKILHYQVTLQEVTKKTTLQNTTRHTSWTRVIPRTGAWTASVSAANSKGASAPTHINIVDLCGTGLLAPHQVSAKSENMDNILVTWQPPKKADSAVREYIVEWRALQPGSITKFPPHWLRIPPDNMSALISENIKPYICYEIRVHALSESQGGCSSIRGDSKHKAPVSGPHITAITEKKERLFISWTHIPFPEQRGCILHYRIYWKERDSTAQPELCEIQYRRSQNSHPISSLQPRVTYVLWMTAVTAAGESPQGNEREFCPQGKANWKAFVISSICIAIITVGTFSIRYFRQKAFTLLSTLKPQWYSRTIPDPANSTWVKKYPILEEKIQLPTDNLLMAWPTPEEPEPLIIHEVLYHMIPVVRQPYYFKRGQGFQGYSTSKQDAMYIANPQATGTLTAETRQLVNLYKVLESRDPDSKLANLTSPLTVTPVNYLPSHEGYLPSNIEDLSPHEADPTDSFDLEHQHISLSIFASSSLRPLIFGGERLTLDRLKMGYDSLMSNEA

T4: human IL-12Rβ2 (human, UniProt Q99665 24-862)
T4 construct: Expressed on HEK293T cells transiently transfected with a pcDNA3 plasmid (Genscript clone OHu21785); also called hIL-12RB2; IL-12 receptor β2 subunit
T4 sequence: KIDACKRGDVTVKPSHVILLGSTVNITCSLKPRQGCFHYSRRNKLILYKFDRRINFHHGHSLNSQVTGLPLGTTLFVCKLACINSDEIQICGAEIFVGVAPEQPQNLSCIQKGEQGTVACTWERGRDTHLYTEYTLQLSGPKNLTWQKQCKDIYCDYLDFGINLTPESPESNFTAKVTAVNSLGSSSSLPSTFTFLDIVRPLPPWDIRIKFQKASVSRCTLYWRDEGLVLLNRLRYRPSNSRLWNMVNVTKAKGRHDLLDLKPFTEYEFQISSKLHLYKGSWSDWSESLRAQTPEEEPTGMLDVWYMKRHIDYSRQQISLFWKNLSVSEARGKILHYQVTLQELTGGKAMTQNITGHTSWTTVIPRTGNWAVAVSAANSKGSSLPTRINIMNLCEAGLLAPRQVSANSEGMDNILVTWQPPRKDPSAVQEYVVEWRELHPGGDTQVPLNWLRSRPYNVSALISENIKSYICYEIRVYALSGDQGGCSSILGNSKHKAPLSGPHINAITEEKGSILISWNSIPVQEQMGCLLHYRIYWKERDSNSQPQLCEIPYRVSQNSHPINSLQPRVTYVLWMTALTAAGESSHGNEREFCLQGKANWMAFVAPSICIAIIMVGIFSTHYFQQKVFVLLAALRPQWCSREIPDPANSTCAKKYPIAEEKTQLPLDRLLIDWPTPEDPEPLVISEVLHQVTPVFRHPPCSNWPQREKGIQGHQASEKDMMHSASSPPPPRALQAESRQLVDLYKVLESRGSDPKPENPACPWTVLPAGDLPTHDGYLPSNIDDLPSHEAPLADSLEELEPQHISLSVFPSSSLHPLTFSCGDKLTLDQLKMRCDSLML

B1: anti-IL-12Rβ2 VHH clone 2CAM88 (VHH)
VHH: QVQLQESGGGLVPPGDSLRLSCAASGRTFSSYTMGWFRQAPGKEREFVARISQDGGSTYYADSMKGRFTVARDNAKNTVYLQMNSLKPEDTAVYYCAADMIKWGLRVGVDSFKYWGQGTQVTVSS
notes: Tested as periplasmic extract; CDR3 group 17
B2: anti-IL-12Rβ2 VHH clone 2CRM88 (VHH)
VHH: QVQLQESGGGLVQAGGSLRLSCQASGRTFSNYRMGWFRQAPGKEREFVAGINWDGGHTYYTDSVKGRFTISRDNAKNTVYLQMNSLKPEDTAVYQCAVRVREYGSSRYEDQFDYWGQGTQVTVSS
notes: Tested as periplasmic extract; CDR3 group 18; also called 20453
B3: anti-IL-12Rβ2 VHH clone 2CRM16 (VHH)
VHH: QVQLQESGGGLVQAGGSLRLSCAASGRTFSNYRMGWFRQAPGKEREFVAGINWDGGHTYYTDSVKGRFTISRDNAKNTVYLQMNSLKPEDTAVYQCAVRVREYGSSRYEDQFDYWGQGTQVTVSS
notes: Tested as periplasmic extract; CDR3 group 18
B4: anti-IL-12Rβ2 VHH clone 2CRM42 (VHH)
VHH: QVQLQESGGGLVQPGESLRLSCQASGRTFSNYRMGWFRQAPGKEREFVAGINWDGGHTYYTDSVKGRFTISRDNAKNTVYLQMNSLKPEDTAVYQCAVRVREYGSSRYEDQFDYWGQGTQVTVSS
notes: Tested as periplasmic extract; CDR3 group 18; also called 20449
B5: anti-IL-12Rβ2 VHH clone 2CAM9 (VHH)
VHH: QVQLQESGGGLVQAGMSLRLSCAASGLTFSWYRMGWFRQAPGKEREFVAGWYGVLTQYRDSVKGRFTISRDDAKNTVYLQMNSLKPEDTAVYYCAASLGGNYRSYEYDYWGQGTQVTVSS
notes: Tested as periplasmic extract; CDR3 group 19
B6: anti-IL-12Rβ2 VHH clone 2CAM12 (VHH)
VHH: QVQLQESGGGLVQAGGSLRLSCAASGRTFSWYRMGWFRQAPGKEREFVAGWYGVLTQYRDSVKGRFTISRDDAKNTVYLQMNSLKPEDTAVYYCAASLGGNYRSYEYDYWGQGTQVTVSS
notes: as for B5
B7: anti-IL-12Rβ2 VHH clone 3CRM66 (VHH)
VHH: QVQLQESGGGLVQPGGSLRLSCAASGSTFSIHAMGWYRQAPGKKRELVARITRGGSTNYADSVKGRFTISVDNAKNTVYLQMNSLKPEDTAVYDCNAETGWGEWDDYWGQGTQVTVSS
notes: Tested as periplasmic extract; CDR3 group 42; also called 20461
B8: anti-IL-12Rβ2 VHH clone 3CRHM20 (VHH, not shown: small tags and cut ends)
VHH: QVQLQESGGGLVQAGGSLRLSCAASGRTFSKSTMGWFRQTPGKEREFVAAITWTDTEVYANSVKDRFTISRDNAKNTFYLQMHSLKLEDTAVYYCAGDRYGSSRDSVFSSPTNYPYWGQGTQVTVSS
notes: periplasmic extract; also called 21055
B9: anti-IL-12Rβ2 VHH clone 3CRHM99 (VHH, not shown: small tags and cut ends)
VHH: QVQLQESGGGLVQPGGSLRLSCAASGISSSRLHVGWFRQSPGKEREFVAAISLSGGTQAYTDSVKGRFTISGDNVKNTAYLQMNSLRPEDTAVYYCAARERFIWTWSDLTYDYWGQGTQVTVSS
notes: periplasmic extract; also called 21062
B10: anti-IL-12Rβ2 VHH clone 3CRHM12 (VHH, not shown: small tags and cut ends)
VHH: QVQLQESGGGSVQAGGSLRLSCAVSGRTVSDYAMGWFRQAPGKEREFVAAMSSSETTVYPNSVKGRITISRDNAKNAVYLQMNALKPEDTAVYYCSMGPIVTFQGLARQNEYHYWGQGTQVTVSS
notes: periplasmic extract
B11: anti-IL-12Rβ2 VHH clone 3CAHM40 (VHH, not shown: small tags and cut ends)
VHH: QVQLQESGGGSVQAGGSLRLSCAVSGRTVSDYAMGWFRQAPGKEREFVAAMSSSETTVYPNSMKGRITISRDNAKNAVYLQLNALKPEDTAVYYCSMGPIATFQGLARQNEYHYWGQGTQVTVSS
notes: periplasmic extract
B12: anti-IL-12Rβ2 VHH clone 3CRHM133 (VHH, not shown: small tags and cut ends)
VHH: QVQLQESGGGSVQAGGSLRLSCAVSGRPVSDYAMGWFRQAPGKEREFVAALSASDTTVYPNSVKGRITISRDNAKNAVDLQMNALKPEDTAVYYCAMGPIGTFQGLARQNEYHYWGQGTQVTVSS
notes: periplasmic extract; also called 21063
B13: anti-IL-12Rβ2 VHH clone 3CRHM240 (VHH, not shown: small tags and cut ends)
VHH: QVQLQESGGGSVQAGGSLRLSCAVSGRTVSDYAMGWFRQAPGKEREFVVAMSSSETTVYTNSVKGRITISRDNAKNAVYLQMNALKPEDTAVYYCSMGPITTFQGLARQNEYHYWGQGTQVTVSS
notes: periplasmic extract; also called 21065
B14: anti-IL-12Rβ2 VHH clone 3CRHM73 (VHH, not shown: small tags and cut ends)
VHH: QVQLQESGGGLVQAGGSLSLSCAASGSAFRLNFMGWYRQAPGKQRELVAAINSGGTEIYHDSVKGRFTISRDNADSTVWLQMNSLKPDDTAVYYCAADRGISWSKLAGGMDYWGKGTQVTVSS
notes: periplasmic extract; also called 21060

Key:
[1] = molecular target: T1, biotinylated recombinant mouse IL-12Rβ2 …; test: ELISA, periplasmic extract on biotinylated mouse IL-12Rβ2; control streptavidin-coated blocked wells
[2] = molecular target: T2, biotinylated recombinant human IL-12Rβ2 …; test: ELISA, periplasmic extract on biotinylated human IL-12Rβ2; control streptavidin-coated blocked wells
mouse IL-12Rβ2 = molecular target: T3, mouse IL-12Rβ2; test: flow cytometry, P.E. on transfected HEK293T cells
human IL-12Rβ2 = molecular target: T4, human IL-12Rβ2; test: flow cytometry, P.E. on transfected HEK293T cells

Binder	ELISA binding mIL-12RB2/control [1]	ELISA binding hIL-12RB2/control [2]	% cells bound (mouse IL-12Rβ2) [%]	dMFI (mouse IL-12Rβ2)	% cells bound (human IL-12Rβ2) [%]	dMFI (human IL-12Rβ2)
B1	62.3 ratio to control	0.998 ratio to control				
B2	3.73 ratio to control	0.873 ratio to control				
B3	4.12 ratio to control	0.947 ratio to control				
B4	6.09 ratio to control	0.942 ratio to control				
B5	8.27 ratio to control	1.09 ratio to control				
B6	3.38 ratio to control	0.9 ratio to control				
B7		1.38 ratio to control				
B8			0.18	86	28.7	556
B9			10.7	351	24.4	558
B10			1.21	103	30.4	495
B11			1.02	105	32.7	544
B12			0.59	133	33.7	721
B13			0.33	43	33.7	635
B14			10.4	357	19.5	397
